Laboratory results from publication PMC5438047 (Nature chemical biology, 2017).

Tests used:
[1] = molecular target: T1, human O-GlcNAc hydrolase (hOGA) (Homo sapiens, UniProt O60502, DEL397-534); test: X-ray crystal structure; type: biochemical; settings: cited from earlier work
T1 sequence (O60502 11-396): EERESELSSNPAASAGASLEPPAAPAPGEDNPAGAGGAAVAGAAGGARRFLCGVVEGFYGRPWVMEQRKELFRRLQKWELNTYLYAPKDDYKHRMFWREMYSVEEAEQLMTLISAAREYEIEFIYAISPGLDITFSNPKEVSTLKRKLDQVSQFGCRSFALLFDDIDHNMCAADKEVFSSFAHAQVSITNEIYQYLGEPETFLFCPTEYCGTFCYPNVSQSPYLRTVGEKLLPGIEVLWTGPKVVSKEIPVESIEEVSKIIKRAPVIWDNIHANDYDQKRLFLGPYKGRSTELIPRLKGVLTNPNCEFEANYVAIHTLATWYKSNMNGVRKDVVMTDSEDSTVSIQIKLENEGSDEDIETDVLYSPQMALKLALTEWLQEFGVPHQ
T1 sequence (O60502 535-715): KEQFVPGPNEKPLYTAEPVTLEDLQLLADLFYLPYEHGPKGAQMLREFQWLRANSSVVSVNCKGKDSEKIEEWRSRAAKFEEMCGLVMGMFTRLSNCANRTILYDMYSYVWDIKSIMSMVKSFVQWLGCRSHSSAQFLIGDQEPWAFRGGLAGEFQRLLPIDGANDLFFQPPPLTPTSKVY

[2] = system: CC(=O)N[C@H]1[C@H](Oc2ccc([N+](=O)[O-])cc2)O[C@H](CO)[C@@H](O)[C@@H]1O; test: purified protein
SEC-MALS = molecular target: the molecule itself; test: SEC-MALS

| Molecule | stoichiometry N (SEC-MALS) | further results |
| --- | --- | --- |
| PUGNAc-imidazole |  | Ki [1]: 3.9 µM |
| human O-GlcNAc hydrolase (hOGA) (Homo sapiens; DEL397-534) |  | Km [2]: 40.93 µM |
| hOGA Split1 (co-expressed fragments 11-396 and 535-715) (complex, human) chain 1: EERESELSSNPAASAGASLEPPAAPAPGEDNPAGAGGAAVAGAAGGARRFLCGVVEGFYGRPWVMEQRKELFRRLQKWELNTYLYAPKDDYKHRMFWREMYSVEEAEQLMTLISAAREYEIEFIYAISPGLDITFSNPKEVSTLKRKLDQVSQFGCRSFALLFDDIDHNMCAADKEVFSSFAHAQVSITNEIYQYLGEPETFLFCPTEYCGTFCYPNVSQSPYLRTVGEKLLPGIEVLWTGPKVVSKEIPVESIEEVSKIIKRAPVIWDNIHANDYDQKRLFLGPYKGRSTELIPRLKGVLTNPNCEFEANYVAIHTLATWYKSNMNGVRKDVVMTDSEDSTVSIQIKLENEGSDEDIETDVLYSPQMALKLALTEWLQEFGVPHQ chain 2: KEQFVPGPNEKPLYTAEPVTLEDLQLLADLFYLPYEHGPKGAQMLREFQWLRANSSVVSVNCKGKDSEKIEEWRSRAAKFEEMCGLVMGMFTRLSNCANRTILYDMYSYVWDIKSIMSMVKSFVQWLGCRSHSSAQFLIGDQEPWAFRGGLAGEFQRLLPIDGANDLFFQPPPLTPTSKVY | 2 |  |
| near full-length hOGA (His(6)9-916) (enzyme, human, UniProt O60502 9-916, looked up) TLEERESELSSNPAASAGASLEPPAAPAPGEDNPAGAGGAAVAGAAGGARRFLCGVVEGFYGRPWVMEQRKELFRRLQKWELNTYLYAPKDDYKHRMFWREMYSVEEAEQLMTLISAAREYEIEFIYAISPGLDITFSNPKEVSTLKRKLDQVSQFGCRSFALLFDDIDHNMCAADKEVFSSFAHAQVSITNEIYQYLGEPETFLFCPTEYCGTFCYPNVSQSPYLRTVGEKLLPGIEVLWTGPKVVSKEIPVESIEEVSKIIKRAPVIWDNIHANDYDQKRLFLGPYKGRSTELIPRLKGVLTNPNCEFEANYVAIHTLATWYKSNMNGVRKDVVMTDSEDSTVSIQIKLENEGSDEDIETDVLYSPQMALKLALTEWLQEFGVPHQYSSRQVAHSGAKASVVDGTPLVAAPSLNATTVVTTVYQEPIMSQGAALSGEPTTLTKEEEKKQPDEEPMDMVVEKQEETDHKNDNQILSEIVEAKMAEELKPMDTDKESIAESKSPEMSMQEDCISDIAPMQTDEQTNKEQFVPGPNEKPLYTAEPVTLEDLQLLADLFYLPYEHGPKGAQMLREFQWLRANSSVVSVNCKGKDSEKIEEWRSRAAKFEEMCGLVMGMFTRLSNCANRTILYDMYSYVWDIKSIMSMVKSFVQWLGCRSHSSAQFLIGDQEPWAFRGGLAGEFQRLLPIDGANDLFFQPPPLTPTSKVYTIRPYFPKDEASVYKICREMYDDGVGLPFQSQPDLIGDKLVGGLLSLSLDYCFVLEDEDGICGYALGTVDVTPFIKKCKISWIPFMQEKYTKPNGDKELSEAEKIMLSFHEEQEVLPETFLANFPSLIKMDIHKKVTDPSVAKSMMACLLSSLKANGSRGAFCEVRPDDKRILEFYSKLGCFEIAKMEGFPKDVVILGRSL | 2 |  |
